Experimental data from patent publication US20240092925A1 (NANJING IASO BIOTECHNOLOGY, published 2024).

Legend:
Assay in all cases: phage ELISA
[1] = target: T1, Recombinant biotinylated Human CD19 Protein-Fc (Kactus, CD2-HE121) (human, UniProt P15391 20-291, biotinylated (site not stated))
T1 construct: bought; also called CD19-Fc-Bio; Kactus-CD19-FC-Bio; not shown: Fc tag
T1 sequence (looked up): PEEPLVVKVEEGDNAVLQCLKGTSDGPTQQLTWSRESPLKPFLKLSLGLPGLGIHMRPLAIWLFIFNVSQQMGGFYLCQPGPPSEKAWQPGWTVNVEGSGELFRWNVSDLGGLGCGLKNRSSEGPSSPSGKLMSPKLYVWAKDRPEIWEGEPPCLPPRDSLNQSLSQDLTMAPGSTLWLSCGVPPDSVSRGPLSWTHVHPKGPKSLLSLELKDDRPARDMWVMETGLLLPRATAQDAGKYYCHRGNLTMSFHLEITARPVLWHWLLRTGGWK

[2] = target: T2, Biotinylated Recombinant human BAFFR Protein (Kactus, BAF-HM40RB) (human, UniProt Q96RJ3 7-71, limits assumed, biotinylated (site not stated))
T2 construct: bought; also called Kactus-BAFFR-his-Bio; not shown: his tag

[3] = target: T3, Streptavidin (Pierce, 21125) (UniProt P22629 37-163, limits assumed)
T3 construct: coated on the ELISA plate; non-related antigen; also called SA

Measured: binding result

T3 sequence (P22629 37-163 limits assumed): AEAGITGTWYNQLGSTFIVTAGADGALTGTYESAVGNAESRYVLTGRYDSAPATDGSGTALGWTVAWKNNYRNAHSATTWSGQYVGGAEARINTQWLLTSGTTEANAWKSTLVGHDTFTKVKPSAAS
T2 sequence (Q96RJ3 7-71 limits assumed): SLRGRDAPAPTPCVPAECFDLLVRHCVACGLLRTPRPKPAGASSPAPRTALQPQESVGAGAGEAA

B1: phage monoclonal clone #60 (single-domain antibody) (VHH)
VHH: QVQLVESGGGLVQPGGSLRLSCAASGFTFSSYEMNWVRQAPGKGLEWVSYISSSGSTIYYADSVKGRFTISRDNAKNSLYLQMNSLRAEDTAVYYCARVAQREGDVWGKGTTVTVSS
no binding: all assays above

B2: phage monoclonal clone #42 (single-domain antibody) (VHH)
VHH: EVQLLESGGGLVQPGGSLRLSCAASGFTFSHSAMGWVRQAPGKGLEWVSSIYARGGYTYYADSVKGRFTISRDNSKNTLYLQMNSLRAEDTAVYYCARGYHLEYMVSQDVWGQGTLVTVSS
no binding: all assays above

B3: phage monoclonal clone #61 (single-domain antibody) (VHH)
VHH: QVQLVQSGAEVKKPGSSVKVSCKASGGTFSNYAISWVRQAPGQGLEWMGWISAYNGDTKYAQRLQGRVTMTTDTSTSTAYMELRNLRSDDTAVYYCARYESMSGQDIWGQGTLVTVSS
no binding: all assays above

B4: phage monoclonal clone #62 (single-domain antibody) (VHH)
VHH: QVQLVQSGAEVKKPGESLRISCKASGYSFSNHWIGWVRQKPGKGLEWMGSVYPGDSDTRYSPSFQGHVTVSADKSMNTAYLQWSSLKTSDTAMYYCARGGTIDGDYGGRQDFWGQGTMVTVSS
no binding: all assays above
